What was measured:
Cynomolgus Factor P [1] = target: Cynomolgus Factor P (cynomolgus); experiment: cell-based or functional assay
Human Factor P [2] = target: T1, Human Factor P (human, UniProt P27918 29-469); experiment: cell-based or functional assay
Cynomolgus Factor P [3] = target: T2, Cynomolgus Factor P (cynomolgus); experiment: SET, solution equilibrium titration
T2 construct: Purified from cynomolgus serum for SET/Biacore; Factor P of cynomolgus serum in the functional assays; also called Cyno Factor P; cyno FP
Procedure: (§1) In SET, a constant amount of antibody is incubated with different concentrations of antigen until equilibrium is reached. The concentration of free antibody in the equilibrated solution is determined by applying the solution on an antigen coated MSD™ plate (Meso Scale Discovery™) followed by incubation with an ECL-labeled secondary antibody and measurement of signal intensity. At low antigen concentrations, a strong signal is achieved (high concentration of free antibody which binds to the antigen on the plate) whereas for high antigen concentration, the antibody is completely antigen-captured, resulting in a low signal. If a sufficient number of antigen concentrations in a matching range are available, the titration curve allows for a reasonable determination of the affinity, using the appropriate fit model. […] The constant concentration of antibody applied in the assay should be in the range of, or below, the KD (Table 4).
(§2) Human Factor P (Complement Technology cat#: A139) and Cyno Factor P purified from cyno serum (protocol adapted from Nakano, et al., (1986) J Immunol Methods 90:77-83) were coated on standard binding MSD plates (Meso-Scale Discovery, 384-well: MSD cat#: L21XA, 96-well: MSD cat#: L15XA) at 0.2-0.3 μg/ml in 25 μl PBS and incubated overnight at 4° C. Factor P inhibitors were diluted to a fixed concentration (1 pM or 10 pM) in incubation buffer (PBS with 2% BSA (Sigma cat#: A4503) and 1% Tween20 and 1% Triton-X (Sigma cat#: 234729)), and added to a serial dilution of Factor P (human or cyno) in incubation buffer. Samples were allowed to reach equilibrium by incubation at RT overnight. Plates were washed 3× in wash buffer (PBS with 0.05% Tween20), and blocked with 100 μl incubation buffer at RT for 2 hrs. Plates were washed 3× in wash buffer. Sample containing Factor P inhibitors and Factor P titration were added to the plate (25 μl), and incubated at RT for 15 min. Plates were washed 3× in wash buffer. 25 μl detection antibody was added (Anti-Human (Goat) Sulfo-TAG, 1:1000 in incubation buffer, MSD cat#: R32AJ-1), and incubated at RT for 60 min. Plates were washed 3× in wash buffer, and 50 μl of 1×MSD Read buffer T was added (with surfactant, MSD cat#: R92TC-1). Plates were read on a MSD Spector Imager 6000.

Human Factor P [4] = target: T1, Human Factor P; experiment: SET, solution equilibrium titration
Procedure: as §1, §2

Cynomolgus Factor P [5] = target: T2, Cynomolgus Factor P; experiment: Biacore SPR, captured Factor P
Human Factor P [6] = target: T1, Human Factor P; experiment: Biacore SPR, captured Factor P

T1 sequence (P27918 29-469 limits assumed): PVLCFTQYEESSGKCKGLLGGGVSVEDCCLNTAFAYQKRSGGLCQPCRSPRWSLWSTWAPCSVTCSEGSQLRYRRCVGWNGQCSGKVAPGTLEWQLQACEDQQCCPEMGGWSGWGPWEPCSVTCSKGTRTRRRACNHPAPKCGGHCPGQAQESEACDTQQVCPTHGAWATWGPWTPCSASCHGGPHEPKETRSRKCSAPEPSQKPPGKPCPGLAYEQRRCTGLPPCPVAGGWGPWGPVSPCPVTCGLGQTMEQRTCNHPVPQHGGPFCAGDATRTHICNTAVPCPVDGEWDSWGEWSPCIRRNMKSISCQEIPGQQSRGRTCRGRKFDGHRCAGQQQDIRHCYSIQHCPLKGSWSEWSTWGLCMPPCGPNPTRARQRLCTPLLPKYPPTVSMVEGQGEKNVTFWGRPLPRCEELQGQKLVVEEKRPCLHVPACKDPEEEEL

Zymosan-C3b IC50 (nM), 10% serum (Cynomolgus Factor P [1]): 5.92 nM
Inhibition of C3a generation, 20% human serum (Human Factor P [2]): 43.5 nM
Zymosan-C3b IC50 (nM), 10% serum (Human Factor P [2]): 2.53 nM
Kd (Cynomolgus Factor P [3]): 0.28 nM
Kd (Human Factor P [4]): 0.04 nM
Kd (Cynomolgus Factor P [5]): 0.315 nM
koff (Cynomolgus Factor P [5]): 0.0006 s⁻¹
kon (Cynomolgus Factor P [5]): 1e+06 M⁻¹ s⁻¹
Kd (Human Factor P [6]): 0.06 nM
koff (Human Factor P [6]): 9e-05 s⁻¹
kon (Human Factor P [6]): 1e+06 M⁻¹ s⁻¹
B1: NVS967 (Fab, V domains shown)
VH: EVQLVQSGAEVKKPGASVKVSCKASGYTFTSHYMHWVRQAPGQGLEWMGNINPVDGGTEYAQKFQGRVTMTRDTSISTAYMELSSLRSEDTAVYYCARDGIEHGGHYYWGYLFDIWGQGTLVTVSS
VL: SYVLTQPPSVSVAPGKTARISCSGDSIREYYVHWYQQKPGQAPVLVIGDDTNRPSGIPERFSGSNSGNTATLTISRAQAGDEADYYCAAWDFSPAIVFGGGTKLTVLG
notes: Disulfide-bridged Fab; also called Fab NVS967
Hemolytic assay IC50 (nM), 10% serum (Cynomolgus Factor P [1]): 14 nM
Hemolytic assay IC50 (nM), 10% serum (Human Factor P [2]): 9.61 nM

— patent publication US20130295102A1 (Novartis, published 2013)
